Changes are numbered by the printed parent chain. In names and notes the source's numbering stands.
Columns and labels:
[1] = molecular target: Del-N35TCTP (residues 35-172) (rat) (UniProt P63029)
[2] = molecular target: Del-N35TCTP (residues 35-172) (rat) (UniProt P63029); assay: non-reducing SDS-PAGE; purified proteins boiled with or without β-ME, 15% gel, coomassie brilliant blue; dimer by intermolecular disulfide bond
[3] = molecular target: Del-N35TCTP (residues 35-172) (rat) (UniProt P63029); assay: non-reducing SDS-PAGE; proteins completely reduced with 20 mM DTT, transferred to 50 mM Tris pH 7.5, 1 mM EDTA, then oxidized with 0.1, 1 or 10 mM H2O2
[4] = molecular target: Del-N35TCTP (residues 35-172) (rat) (UniProt P63029); assay: SEC; Superdex 200 HR 10/30, 50 mM sodium phosphate pH 7.0, 150 mM NaCl, calibrated with molecular size markers
[5] = molecular target: Del-N35TCTP (residues 35-172) (rat) (UniProt P63029); assay: cross-linking; sulfhydryl crosslinkers BMOE (five-fold molar excess, 2 h) or BM(PEO)3 (five-fold molar excess, 1 h), room temperature, proteins first reduced with 20 mM DTT; each protein alone and their 1/2:1/2 molar mixture; reducing SDS-PAGE
Del-N35TCTP-C172S (rat) [6] = molecular target: Del-N35TCTP-C172S (rat) (UniProt P63029); assay: SEC; Superdex 200 HR 10/30, 50 mM sodium phosphate pH 7.0, 150 mM NaCl, calibrated with molecular size markers
Del-N35TCTP-C172S (rat) [7] = molecular target: Del-N35TCTP-C172S (rat) (UniProt P63029)
[8] = molecular target: Fc-fused human recombinant TCTP (Fc-HrTCTP) (human | rabbit) (UniProt P13693); assay: native gel or EMSA; Fc fusion proteins on a native gel, apparent molecular weights by a molecular size marker
[9] = molecular target: TCTP in bronchoalveolar lavage fluid (BALF) of mice with airway inflammation (mouse (endogenous in BALB/c BALF)) (UniProt P63028); assay: non-reducing SDS-PAGE and Western blotting; BALF from OVA-OVA and N11TCTP-N11TCTP mice
[10] = molecular target: rabbit Fc protein (Fc) (rabbit); assay: native gel or EMSA; Fc fusion proteins on a native gel, apparent molecular weights by a molecular size marker
[11] = molecular target: the molecule itself; assay: non-reducing SDS-PAGE; purified proteins boiled with or without β-ME, 15% gel, coomassie brilliant blue; dimer by intermolecular disulfide bond
[12] = molecular target: the molecule itself; assay: cell-based or functional assay

Del-N35TCTP (residues 35-172) (from UniProt P63029 35-172) (domain or fragment)
IL-8 secretion from BEAS-2B cells by BM(PEO)3-treated DTT-pretreated Del-N35TCTP, percent of DTT-untreated Del-N35TCTP (% of DTT-untreated Del-N35TCTP) [1]: 122
IL-8 secretion from BEAS-2B cells by BMOE-treated DTT-pretreated Del-N35TCTP, percent of DTT-untreated Del-N35TCTP (% of DTT-untreated Del-N35TCTP) [1]: 108
IL-8 secretion from BEAS-2B cells by DTT-treated Del-N35TCTP, percent of DTT-untreated Del-N35TCTP (% of DTT-untreated Del-N35TCTP) [1]: 71.7
stoichiometry N [2]: 2
stoichiometry N [3]: 2
stoichiometry N [4]: 2
stoichiometry N [5]: 2

Del-N35TCTP-C172S (from UniProt P63029 35-172) (domain or fragment)
stoichiometry N (Del-N35TCTP-C172S (rat) [6]): 2
IL-8 secretion from BEAS-2B cells, 5 µm/ml protein, 24 h, percent of wild-type (Del-N35TCTP) (% of wild-type) (Del-N35TCTP-C172S (rat) [7]): 36

Fc-fused human recombinant TCTP (Fc-HrTCTP) (from UniProt P13693 1-172) (Fc fusion)
stoichiometry N [8]: 2

TCTP in bronchoalveolar lavage fluid (BALF) of mice with airway inflammation (from UniProt P63028 1-172) (natural protein)
stoichiometry N [9]: 2

rabbit Fc protein (Fc) (domain or fragment)
stoichiometry N [10]: 2

B1: Del-N11TCTP-C172S (domain or fragment, rat, UniProt P63029 11-172, looked up)
chain: DELFSDIYKIREIADGLCLEVEGKMVSRTEGAIDDSLIGGNASAEGPEGEGTESTVVTGVDIVMNHHLQETSFTKEAYKKYIKDYMKSLKGKLEEQKPERVKPFMTGAAEQIKHILANFNNYQFFIGENMNPDGMVALLDYREDGVTPFMIFFKDGLEMEKS
stoichiometry N [11]: 2
IL-8 secretion from BEAS-2B cells, 5 µm/ml protein, 24 h, percent of wild-type (Del-N11TCTP) [12]: 52 % of wild-type

B2: Del-N11TCTP (residues 11-172) (domain or fragment, rat, UniProt P63029 11-172, looked up)
chain: B1 chain with S162C
notes: No stop codon in the reverse primer; also called Del-N11HRF
stoichiometry N [11]: 2

B3: Del-N11TCTP-C28S (domain or fragment, rat, UniProt P63029 11-172, looked up)
chain: B1 chain with C18S, S162C
notes: No stop codon in the reverse primer
stoichiometry N [11]: 2

— PMC2715101, “Dimerization of Translationally Controlled Tumor Protein Is Essential For Its Cytokine-Like Activity” (PLoS ONE, 2009)
